# Measurements as given in patent publication US11707527B2, “Nanoscale drug carrier capable of passing through blood-brain barrier” (KUNSHAN XINYUNDA BIOTECH CO., LTD., priority 2017, dated 2023).
# Tests used:
# [1] = tested on: hCMEC/D3 BBB model; experiment: In vitro BBB model (Transwell) transcytosis; type: in vitro ADME, human; details: 50 μg/mL FITC-labeled, 6 h, upper to lower chamber
# Experimental: The cells were cultured at 37° C. under CO2 in an incubator to confluence (2-3d). After the confluence state of hCMEC/D3 was observed by a microscope, medium (EBM-2 medium) was added to an upper chamber of the Transwell plate, resulting a more than 0.5 cm difference of liquid level between the upper and lower chamberst. If an obvious difference between the two chambers can be still observed after 4 h, it was regarded as completely confluent. The wells of Transwell without inoculated cells were used as a blank control.
# Equal amount (50 μg/mL) of FITC-labeled H-ferritins and the control FITC-labeled BSA were dissolved in EBM-2 medium (Gibco Life Technologies Inc., UK). […] The total volume (V) of the lower chamber was measured after being cultured for 6 h in a cell incubator. And then, 50 μL samples were respectively taken out of the lower chamber, and H-ferritin or BSA concentration (C) was measured by measuring fluorescence intensity (wavelength 488 nm). Afterwards, transcytosis efficiency was calculated according to the following formula: transcytosis efficiency %=(Clower chamber×Vlower chamber)/(Cinitial×Vinitial)×100%.
# [2] = tested on: human BBB brain endothelial hCMEC/D3 cells; experiment: Specific binding of FITC-labeled ferritin to human brain endothelial cells (flow cytometry); type: cell-based; details: 50 μg/ml FITC-labeled protein, 45 min, 4° C., hCMEC/D3, vs FITC-BSA
# Experimental: Human BBB brain endothelial hCMEC/D3 cells were cultured to about 1×10^5 (100×20 mm, dish Corning, USA) and digested with trypsin, then the cells were washed with 0.3% (w/v) BSA/PBS (pH7.4) for three times. […] The cells were washed with 0.3% BSA/PBS for three times, finally resuspended in PBS (pH7.4). And fluorescence of the samples was tested by flow cytometry (at a wavelength of 488 nm).
# [3] = tested on: human BBB brain endothelial cells hCMEC/D3; experiment: Endocytosis and lysosome co-localization in human brain endothelial cells (confocal microscopy); type: cell-based; details: hCMEC/D3, 4 h incubation
# Experimental: Human BBB brain endothelial cells hCMEC/D3 slides (BD Biosciences) were placed in a 6-well plate (with well diameter of 34.8 mm, Corning, USA) for culturing above to a density of about 60%, then the experiment was conducted. 1 μM FITC-labeled H-ferritin above was added, and incubated respectively for 5 min and 6 min at 37° C. Then the cells were washed with 0.3% BSA/PBS for three times, and finally fixed with 4% paraformaldehyde. After being washed with PBS (pH7.4) for three times, cell nuclei were stained with DAPI (Roche Applied Science) 10 min at room temperature. After being washed by PBS for three times again, the slides were mounted with a mounting medium, and observed by laser confocal microscopy (Olympus FluoView FV-1000, Tokyo, Japan).
# Human BBB brain endothelial cells hCMEC/D3 slides (BD Biosciences) were placed in a 6-well plate for culturing to a density of about 60%, and then the experiment was conducted. […] The cells were fixed with 4% paraformaldehyde after being washed with PBS for three times. Then 0.1% Triton X-100 was used for cell permeabilization After being washed with PBS again, the cells were blocked in 5% goat serum (ZSGB-BIO) 30 min at room temperature, and then incubated in Alexa Fluor®555-labeled antibodies and lysosome marker molecules LAMP1 (1:200, clone H4A3; Invitrogen) for 1 h at 37° C. […]
molecule,measurement,setting,value
"chimeric human H-ferritin: human L-ferritin with outer surface sequences replaced with SEQ ID NO: 1-3 of H-ferritin; SEQ ID NO: 7 (protein, chimeric human H ferritin) MTSQVRQNYHQDSEAAINRQINLELYASYVYLSMSYYFDRDDVALEGVSHFFRELAEEKREGYERLLKMQNQRGGRIFLQDIKKPDCDDWESGLNAMECALHLEKNVNQSLLELHKLATDKNDPHLCDFLETHFLDEEVKLIKKMGDHVTNLRKMGAPESGLAEYLFERLTLKHD",crossing the in vitro BBB model (transcytosis efficiency),[1],can significantly cross the blood brain barrier
same,specific binding with human brain endothelial cells,[2],can still achieve specific binding
same,entering / co-localization with lysosome (LAMP1) in brain endothelial cells,[3],did not co-localize with the lysosome
